Data published in patent US20240101668A1 (WUGEN, published 2024).

T1: huCLL1-K244-Avi-Tev-His (human, UniProt Q5QGZ9 65-265)
T1 construct: extracellular domain
T1 sequence (looked up): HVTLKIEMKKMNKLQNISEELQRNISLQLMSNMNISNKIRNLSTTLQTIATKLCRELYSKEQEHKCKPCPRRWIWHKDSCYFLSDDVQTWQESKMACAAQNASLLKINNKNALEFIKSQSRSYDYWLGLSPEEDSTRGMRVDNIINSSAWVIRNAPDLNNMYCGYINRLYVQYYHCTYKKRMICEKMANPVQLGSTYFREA

T2: huCLL1-Q244-Avi-Tev-His (human, UniProt Q5QGZ9 65-265)
T2 construct: extracellular domain; also called CLL-1 K244Q
T2 sequence (looked up): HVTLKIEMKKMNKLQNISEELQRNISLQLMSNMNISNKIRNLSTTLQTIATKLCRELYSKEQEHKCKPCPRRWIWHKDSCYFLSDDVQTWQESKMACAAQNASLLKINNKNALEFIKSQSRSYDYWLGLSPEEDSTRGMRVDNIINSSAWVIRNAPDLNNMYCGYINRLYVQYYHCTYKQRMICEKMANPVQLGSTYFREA


How the values were obtained:
huCLL1-K244-Avi-Tev-His = target: T1, huCLL1-K244-Avi-Tev-His; assay: BLI
huCLL1-Q244-Avi-Tev-His = target: T2, huCLL1-Q244-Avi-Tev-His; assay: BLI

Binder | binding result (huCLL1-K244-Avi-Tev-His) | binding result (huCLL1-Q244-Avi-Tev-His)
Polypeptide No. 184 (scFv, V domains shown, scFv) VH: QVQLVQSGAEVKKPGASVKVSCKASGGTFGNYGINWVRQAPGQGLEWMGVINPSSGGTNLAQKFQGRVTMTRDTSTSTVYMELSSLRSEDTAVYYCARSLGWPSPYMDVWGQGTMVTVSS VL: DIQMTQSPSSLSASVGDRVTITCRASQSISRYLNWYQQKPGKAPKLLIYDASNLETGVPSRFSGSGSGTDFTLTISSLQPEDFATYYCQQSYSTPWTFGQGTKLEIKR | binds | binds
Polypeptide No. 181 (scFv, V domains shown, scFv) VH: QVQLVQSGAEVKKPGASVKVSCKASGYTFTGYYMHWVRQAPGQGLEWMGVINPSGGSTSYAQKFQGRVTMTRDTSTSTVYMELSSLRSEDTAVYYCARGRTDDAFDIWGQGTLVTVSS VL: DIQMTQSPSSLSASVGDRVTITCRASQTISSWLAWYQQKPGKAPKLLIYAASTLQSGVPSRFSGSGSGTDFTLTISSLQPEDFATYYCQQSYSIPLTFGGGTKLEIKR | binds | binds
Polypeptide No. 187 (scFv, V domains shown, scFv) VH: EVQLLESGGGLVQPGGSLRLSCAASGFTFSSYDMHWVRQAPGKGLEWVSSISSSSSYIYYADSVKGRFTISRDNSKNTLYLQMNSLRAEDTAVYYCARDIDDVAGDYWGQGTLVTVSS VL: DIQMTQSPSSLSASVGDRVTITCQASQDISNYLNWYQQKPGKAPKLLIYGASSLQSGVPSRFSGSGSGTDFTLTISSLQPEDFATYYCQQSYSTPFTFGQGTKLEIKR | binds | binds
Polypeptide No. 173 (scFv, V domains shown, scFv) VH: QVQLVQSGAEVKKPGASVKVSCKASGYTFNGYNMHWVRQAPGQGLEWMGWINPNSGDTNYAQKFQGRVTMTRDTSTSTVYMELSSLRSEDTAVYYCASLDYGDYAVYWGQGTLVTVSS VL: DIQMTQSPSSLSASVGDRVTITCRASQSISTWLAWYQQKPGKAPKLLIYDASSLRSGVPSRFSGSGSGTDFTLTISSLQPEDFATYYCQQSYSTPITFGQGTKVEIKR | binds | binds
Polypeptide No. 182 (scFv, V domains shown, scFv) VH: QVQLVQSGAEVKKPGASVKVSCKASGYTFTDYYMHWVRQAPGQGLEWLGIINTGAGTTNYAPKFQGRVTMTRDTSTSTVYMELSSLRSEDTAVYYCARGLTSDHFDYWGQGTLVTVSS VL: DIQMTQSPSSLSASVGDRVTITCRASQNIGPWLAWYQQKPGKAPKLLIYEAFTLQSGVPSRFSGSGSGTDFTLTISSLQPEDFATYYCQQSDNIPITFGQGTKVEIKR | binds | binds
Polypeptide No. 171 (scFv, V domains shown, scFv) VH: QVQLVQSGAEVKKPGASVKVSCKASGYTFTDYYIHWVRQAPGQGLEWMGMVDPNTGNINYAQTFQGRVTMTRDTSTSTVYMELSSLRSEDTAVYYCTSGSTNDAFDIWGQGTMVTVSS VL: DIQMTQSPSSLSASVGDRVTITCRASQSIGPWLAWYQQKPGKAPKLLIYEASNLASGVPSRFSGSGSGTDFTLTISSLQPEDFATYYCQQSYSTPLTFGGGTKVEIKR | binds | binds
Polypeptide No. 176 (scFv, V domains shown, scFv) VH: QVQLVQSGAEVKKPGASVKVSCKASGGSFTSYYIHWVRQAPGQGLEWVGWMNPNSGNTGYAQKFQGRVTMTRDTSTSTVYMELSSLRSEDTAVYYCARGATDDAFDIWGQGTMVTVSS VL: DIQMTQSPSSLSASVGDRVTITCRASQNIDTWLAWYQQKPGKAPKLLIYDGSNLEAGVPSRFSGSGSGTDFTLTISSLQPEDFATYYCQQSYNTPITFGQGTRLEIKR | binds | binds
Polypeptide No. 175 (scFv, V domains shown, scFv) VH: QVQLVQSGAEVKKPGASVKVSCKASGYTFTSYDIHWVRQAPGQGLEWMGWINPNSGNTGYAQKFQGRVTMTRDTSTSTVYMELSSLRSEDTAVYYCAGGPDVDAAMVLDYWGQGTLVTVSS VL: DIQMTQSPSSLSASVGDRVTITCQASQDISNYLNWYQQKPGKAPKLLIYDASNLETGVPSRFSGSGSGTDFTLTISSLQPEDFATYYCQQADGFPPTFGGGTKVEIKR | binds | binds
Polypeptide No. 186 (scFv, V domains shown, scFv) VH: QVQLVQSGAEVKKPGASVKVSCKASGYTFTKYYMHWVRQAPGQGLEWMGWINPNSGNTGYAQKFQGRVTMTRDTSTSTVYMELSSLRSEDTAVYYCARDIAVAGSTYYYYGMDVWGQGTTVTVSS VL: DIQMTQSPSSLSASVGDRVTITCQASQDISNYLNWYQQKPGKAPKLLIYDATNLETGVPSRFSGSGSGTDFTLTISSLQPEDFATYYCQQSYSTPPTFGGGTKVEIKR | binds | binds
Polypeptide No. 185 (scFv, V domains shown, scFv) VH: EVQLLESGGGLVQPGGSLRLSCAASGFTFSNSDMYWVRQAPGKGLEWVSAISGSDGTTYYADSVKGRFTISRDNSKNTLYLQMNSLRAEDTAVYYCARDDYGDQGFDLWGRGTLVTVSS VL: DIQMTQSPSSLSASVGDRVTITCRASQDIRNDLGWYQQKPGKAPKLLIYDASNLQTGVPSRFSGSGSGTDFTLTISSLQPEDFATYYCQQSYNMPYTFGQGTKLEIKR | binds | binds

The next lines start with the values.

binding result (huCLL1-K244-Avi-Tev-His) | binding result (huCLL1-Q244-Avi-Tev-His) | Binder
binds | binds | Polypeptide No. 170 (scFv, V domains shown, scFv) VH: QVQLVQSGAEVKKPGASVKVSCKASGGSFSNHGVSWVRQAPGQGLEWMGWMNPNSGDTGYAQKFQGRVTMTRDTSTSTVYMELSSLRSEDTAVYYCARPRKDDAFAIWGQGTLVTVSS VL: DIQMTQSPSSLSASVGDRVTITCRASQSISSWLAWYQQKPGKAPKLLIYEASTLQSGVPSRFSGSGSGTDFTLTISSLQPEDFATYYCQQSYSTPLTFGQGTKVEIKR
binds | binds | Polypeptide No. 183 (scFv, V domains shown, scFv) VH: QVQLVQSGAEVKKPGSSVKVSCKASGGTFSSYAISWVRQAPGQGLEWMGGIIPKFGPPNYAPKFQGRVTITADESTSTAYMELSSLRSEDTAVYYCARNSYGDDFDYWGQGTLVTVSS VL: DIQMTQSPSSLSASVGDRVTITCRASQSISSWLAWYQQKPGKAPKLLIYAASSLQRGVPSRFSGSGSGTDFTLTISSLQPEDFATYYCQQSYSTPLTFGQGTKVEIKR
binds | binds | Polypeptide No. 174 (scFv, V domains shown, scFv) VH: EVQLLESGGGLVQPGGSLRLSCAASGFIFRDHWMHWVRQAPGKGLEWVSSIDFSTGYIYYADSVKGRFTISRDNSKNTLYLQMNSLRAEDTAVYYCARDPWGDGDFDYWGRGTLVTVSS VL: DIQMTQSPSSLSASVGDRVTITCRASQSISSWLAWYQQKPGKAPKLLIYAASSLQSGVPSRFSGSGSGTDFTLTISSLQPEDFATYYCQQTYTTPYTFGQGTRLEIKR
binds | binds | Polypeptide No. 180 (scFv, V domains shown, scFv) VH: QVQLVQSGAEVKKPGASVKVSCKASGYTFTSLDINWVRQAPGQGLEWMGSMNPRSGSTAYAQSFQGRVTMTRDTSTSTVYMELSSLRSEDTAVYYCAKSDYGDYLDYWGQGTLVTVSS VL: DIQMTQSPSSLSASVGDRVTITCRASQSISPWLAWYQQKPGKAPKLLIYDASNLQSGVPSRFSGSGSGTDFTLTISSLQPEDFATYYCQQSYSTPLTFGQGTKLEIKR
binds | binds | Polypeptide No. 189 (scFv, V domains shown, scFv) VH: EVQLLESGGGLVQPGGSLRLSCAASGLTAGSNYMSWVRQAPGKGLEWVSAISDDGHWTDYADSVKGRFTISRDNSKNTLYLQMNSLRAEDTAVYYCVKDDGEGSGIDWGQGTLVTVSS VL: DIQMTQSPSSLSASVGDRVTITCRASQGISDYLAWYQQKPGKAPKLLIYGASSLQSGVPSRFSGSGSGTDFTLTISSLQPEDFATYYCQQSYSTPWTFGPGTKVDIKR
binds | binds | Polypeptide No. 178 (scFv, V domains shown, scFv) VH: EVQLLESGGGLVQPGGSLRLSCAASGFTFSSSDMSWVRQAPGKGLEWVSSITGSGDGTYYADSVKGRFTISRDNSKNTLYLQMNSLRAEDTAVYYCIRDWEGIYQWGQGTLVTVSS VL: DIQMTQSPSSLSASVGDRVTITCRVSQGISSYLNWYQQKPGKAPKLLIYDASNLETGVPSRFSGSGSGTDFTLTISSLQPEDFATYYCQQGYSTPWTFGQGTKLEIKR
binds | binds | Polypeptide No. 188 (scFv, V domains shown, scFv) VH: EVQLLESGGGLVQPGGSLRLSCAASGFTFSSYGMHWVRQAPGKGLEWVSYTSSSSSTIYYADSVKGRFTISRDNSKNTLYLQMNSLRAEDTAVYYCARGNVGDNWNDDEAFLGWGQGTLVTVSS VL: DIQMTQSPSSLSASVGDRVTITCQASQDISNYLNWYQQKPGKAPKLLIYDASNLETGVPSRFSGSGSGTDFTLTISSLQPEDFATYYCQQTYDTPYTFGQGTKLEIKR
binds | binds | Polypeptide No. 179 (scFv, V domains shown, scFv) VH: QVQLVQSGAEVKKPGASVKVSCKASGGTFSSYAISWVRQAPGQGLEWMGTINPSGGSTNYAQKFQGRVTMTRDTSTSTVYMELSSLRSEDTAVYYCAIGGYDSPYMDVWGKGTTVTVSS VL: DIQMTQSPSSLSASVGDRVTITCQASQDISNYLNWYQQKPGKAPKLLIYDASNLETGVPSRFSGSGSGTDFTLTISSLQPEDFATYYCQQGYSPPWTFGGGTKVEIKR
binds | binds | Polypeptide No. 172 (scFv, V domains shown, scFv) VH: QVQLVQSGAEVKKPGASVKVSCKASGYTFSDYYVHWVRQAPGQGLEWMGWMNPNSGNTGYAQKFQGRVTMTRDTSTSTVYMELSSLRSEDTAVYYCARGLTGDQFDYWGQGTLVTVSS VL: not shown
